This note sets out measurements from paper PMC2119237.

In this assay the target is HLA-DR1 (human (endogenous in WT-100)). The experiment in a line: SEC. (Size exclusion chromatography separates by hydrodynamic size, large species first.)

Where no end group is shown, it is not given here. The star is where a group is joined. AMCA = 7-amino-4-methyl-coumarin-3-acetic acid, Cc1c(CC(=O)*)c(=O)oc2cc(N)ccc12

Take {AMCA}-AILEFRAMAQFSRKTD [AMCA-SP3(1-16), synthetic self-peptide SP3 labelled at the NH2 terminus]: the binding capacity relative to IM(18-29) was 3 fold.
